Laboratory results as given in patent publication US12545900B2, “CGAS/DNCV-like nucleotidyltransferases and uses thereof” (Dana-Farber Cancer Institute, Inc., priority 2018, dated 2026).
Entries after “also recorded” stand apart in the source; their conditions may differ.

How the values were obtained:
RECON = target: T1, RECON (Mus musculus, UniProt Q8VC28); experiment: Gel shift assay, radiolabeled nucleotide binding to RECON (native PAGE); settings: radiolabeled nucleotide, 0, 4, 20, 100 μM protein
T1 construct: 6xHis-SUMO2 (N, cleaved yes); made in house; host or cells: E. coli BL21 CodonPlus (DE3)-RIL
T1 sequence (Q8VC28 1-323): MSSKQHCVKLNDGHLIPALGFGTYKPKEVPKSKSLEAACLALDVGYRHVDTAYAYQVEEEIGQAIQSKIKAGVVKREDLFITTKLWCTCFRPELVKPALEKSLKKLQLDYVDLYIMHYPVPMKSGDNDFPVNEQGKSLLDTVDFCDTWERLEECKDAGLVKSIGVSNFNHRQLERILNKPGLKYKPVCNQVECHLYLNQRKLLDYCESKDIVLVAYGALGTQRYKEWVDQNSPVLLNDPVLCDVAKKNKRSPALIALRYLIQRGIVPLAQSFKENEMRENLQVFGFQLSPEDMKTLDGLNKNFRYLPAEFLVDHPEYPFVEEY
Method: (§1) Briefly, recombinant Mus musculus STING or RECON, at 4, 20, or 100 μM was incubated with radiolabeled nucleotide (≤1 μM final concentration) in gel shift buffer for final conditions of 50 mM Tris pH 7.5, 60 mM KCl, 5 mM Mg (OAc) 2, and 1 mM DTT. Experiments were prepared by combining 1 μL of [α-^32P] labeled nucleotide, 2 uL 5x gel shift buffer, 5 μL of nuclease free water, and started by addition of 2 μL of recombinant protein in storage buffer.
(§2) After 30 min of equilibration, bound and free nucleotide were separated by 6% native PAGE in 0.5x TBE buffer. Gels were dried, and exposed to phosphorscreen prior to detection by Typhoon Trio Variable Mode Imager system (GE Healthcare). Gel shifts were quantified with ImageQuant® 5.2 and the % bound nucleotide was calculated as a proportion of total bound and free nucleotide for each lane, after subtraction of background signal. Gel shift data is representative of ≥2 independent experiments.

CapE = target: T2, CapE (Escherichia coli, UniProt Q6XGD4); experiment: Phospholipase assay (EnzChek Phospholipase A1), CapE; format: biochemical, E. coli; settings: 0.1, 1, and 10-fold molar ratios of nucleotide to phospholipase
T2 construct: made in house; host or cells: E. coli BL21 CodonPlus (DE3)-RIL
Method: Patatin-like lipases were assayed as previously described (Gaspar & Machner (2014) Proc. Natl. Acad. Sci. U.S.A. 111:4560-4565). Briefly, CapV and CapE were produced recombinantly and catalytic activity was measured using the EnzChek® Phospholipase A1 Assay Kit (Invitrogen) according to the manufacturer's instructions. […] Assays were monitored fluorometrically Ex=460 nm/Em=515 nm, for 60 min at ˜90 s intervals at room temperature using a Biotek Synergy plate reader. Slope of each reaction in the linear range was used to calculate activity (Linear regression/straight line analysis, Prism 7.0c). A PLA1 standard curve from 20-0.02 U was used to interpolate phospholipase activity. Emission was monitored at a gain of 100 and/or 50 in order to extend the linear range of the assay.

Mus musculus STING = target: T3, Mus musculus STING (Mus musculus, UniProt Q3TBT3); experiment: Gel shift assay, radiolabeled nucleotide binding to STING (native PAGE); settings: radiolabeled nucleotide, 0, 4, 20, 100 μM protein
T3 construct: 6xHis-SUMO2 (N, cleaved yes); made in house; host or cells: E. coli BL21 CodonPlus (DE3)-RIL
T3 sequence (Q3TBT3 138-378 limits assumed): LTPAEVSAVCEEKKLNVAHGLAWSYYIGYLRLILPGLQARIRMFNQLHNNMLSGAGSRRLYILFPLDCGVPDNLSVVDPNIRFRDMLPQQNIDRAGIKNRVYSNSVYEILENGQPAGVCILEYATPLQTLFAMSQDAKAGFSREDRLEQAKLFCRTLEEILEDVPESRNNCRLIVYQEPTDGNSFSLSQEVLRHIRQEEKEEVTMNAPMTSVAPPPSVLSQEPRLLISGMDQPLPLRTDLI
Method: as §1, §2

[1] = Second messenger synthesis assay ([α-32P] NTPs, TLC, MS/NMR of products); format: biochemical; settings: for nucleotide product synthesized by the enzyme: purified enzyme with [α-32P] NTPs, TLC, products confirmed by MS/NMR
Method: Recombinant, candidate nucleotidyltransferase reactions combined 4 μL of 5× reaction buffer (250 mM CAPSO pH 9.4, […], 25 mM Mg (OAc) 2, 5 mM DTT), 2 μL of 10× NTPs, 1 uL [α-^32P] NTPs (˜1 uCi), 1 μL of candidate enzyme in storage buffer (˜20 μM), and a remaining volume of nuclease free water. The final reactions (50 mM CAPSO pH 9.4, 50 mM KCl, 5 mM Mg (OAc) 2, 1 mM DTT, ≤5% glycerol, 25-250 μM individual NTPs, trace amounts of [(-^32P] NTP, 1 μM enzyme) were started with addition of enzyme. Where indicated, pH was altered by replacing CAPSO buffer with appropriate buffer from “StockOptions pH Buffer Kit” (Hampton Research). When appropriate, Mg^2+ was replaced with an equimolar concentration of Mn^2+(MnCl2). cGAS reactions were always carried out with Tris at pH 7.5 and supplemented with 1 μM ISD45 dsDNA (Stetson & Medzhitov. (2006) Immunity 24:93-103). Reactions were carried out with 25 μM of each indicated NTP for FIGS. 1B, 3D, 8B, 8C, and 8D and for FIGS. 2C, 2G-2I, 5B, 5C, 10A-10D, 11A, 11B, and 13D. Reactions in all other figures were carried out with 250 μM NTP. The NTP/[α-^32P] NTPs in FIG. 1B are cGAS (ATP, GTP/[α-^32P] GTP), DncV (ATP, GTP/[α-^32P] ATP), DisA (ATP/[α-^32P] ATP), WspR (GTP/[xx-^32P] GTP), and CdnE (NTP/[{-^32P] NTP). P1 nuclease treated reactions in FIG. 1C and FIG. 11B are cGAS (ATP, GTP/[α-^32P] ATP), DncV (ATP, GTP/[α-^32P] GTP), CdnE (ATP, UTP/[<- ^32P] ATP), and Lp-CdnE02 (CTP, UTP/ [α-^32P] UTP) . Where indicated, nonhydrolyzable nucleotides [Ap (c) pp, Gp (c) pp, Cp (c) pp, or Up (n) pp (Jena)] were used at 25 μM.
Reactions were incubated for 2 h at 37° C. prior to analysis unless otherwise stated. Reactions were stopped by addition of 5 U of alkaline phosphatase (New England Biolabs) which removed triphosphates on remaining NTPs and converted the remaining nucleotide [α-^32P] to ^32Pi and allowed visualization of cyclic nucleotides. After a >20 min incubation, […] (PEI-cellulose) or 1 uL (silica) of the reaction was spotted 1.5 cm from the bottom of the TLC plate, spaced 0.8 cm apart. 20 cm×20 cm F-coated PEI-cellulose TLCs (Millipore) were developed in 1.5 M KH2PO4 (pH 3.8) until the buffer front reacted ˜1 cm from the top; 20 cm×10 cm F-coated silica HP-TLC plates (Millipore) were developed in 11:7:2 1-propanol: NH4OH: H2O in a chemical fume hood for 1 hour. Plates were dried and exposed to phosphorscreen prior to detection by Typhoon™ Trio Variable Mode Imager system (GE Healthcare). All TLC data are representative of ≥3 independent experiments, with the exception of the biochemical screen which represents ≥2 independent experiments.
Cyclic nucleotides were produced in large scale using previously described methods (Sureka et al. (2014) Cell 158:1389-1401) with the following changes. Small-scale second messenger synthesis assays were scaled up to […] reactions with final conditions of 50 mM CAPSO pH 9.4, 12.5-50 mM KCl, 5-20 mM Mg (OAc) 2, 1 mM DTT, ≤5% glycerol, 250 μM individual NTPs, and 1 μM enzyme. A 20 μL aliquot of the larger reaction was removed and [cx-^32P] NTP were added to follow reaction progress. Reactions were incubated for 24 hours at which time 5 U of CIP/mL of reaction was added and the reaction was further incubated for 2-24 hours. Reactions were heat inactivated at 65° C. for 30 min, diluted to a final salt concentration of 12.5 mM, and purified by anion exchange chromatography and FPLC (either 1 mL Q-Sepharose® column, or Mono Q 4.6/100 PE, GE Healthcare). The column was washed with water and 1 mL fractions were collected during a gradient elution with 2M ammonium acetate. Fractions harboring the appropriate product were identified by A260 and silica TLC, visualizing the nucleotide products by UV-shadowing, imaging using a handheld camera, and comparing migration to paired, radiolabeled reactions. Selected fractions were concentrated by evaporation and re-suspended in 30 μL of nuclease free water for MS. […]

T2 sequence (Q6XGD4 whole entry): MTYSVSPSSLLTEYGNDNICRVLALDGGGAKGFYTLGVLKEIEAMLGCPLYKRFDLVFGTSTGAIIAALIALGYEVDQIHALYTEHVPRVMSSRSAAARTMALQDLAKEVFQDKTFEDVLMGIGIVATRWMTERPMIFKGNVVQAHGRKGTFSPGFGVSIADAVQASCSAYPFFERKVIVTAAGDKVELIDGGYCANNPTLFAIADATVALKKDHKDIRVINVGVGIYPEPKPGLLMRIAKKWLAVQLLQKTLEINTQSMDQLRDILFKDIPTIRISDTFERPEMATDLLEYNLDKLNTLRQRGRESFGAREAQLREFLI

## Nc1nc2c(ncn2[C@@H]2O[C@@H]3COP(=O)(O)O[C@H]4[C@@H](O)[C@H](n5cnc6c(N)ncnc65)O[C@@H]4COP(=O)(O)O[C@H]3[C@H]2O)c(=O)[nH]1 [3′3′ cGAMP, 3′-5′/3′-5′ cGAMP, reference compound]
RECON
  recognition/binding of nucleotide by RECON: detected by both STING and RECON
CapE
  activation of CapE phospholipase activity: exquisite specificity of CapE insulates this circuit from 3′3′ cGAMP

## Nc1ncnc2c1ncn2[C@@H]1O[C@@H]2COP(=O)(O)O[C@H]3[C@@H](O)[C@H](n4cnc5c(N)ncnc54)O[C@@H]3COP(=O)(O)O[C@H]2[C@H]1O [c-di-AMP, cyclic di-AMP, reference compound]
RECON
  recognition/binding of nucleotide by RECON: detected by both STING and RECON

## Nc1nc2c(ncn2[C@@H]2O[C@@H]3COP(=O)(O)O[C@H]4[C@@H](O)[C@H](n5cnc6c(=O)[nH]c(N)nc65)O[C@@H]4COP(=O)(O)O[C@H]3[C@H]2O)c(=O)[nH]1 [c-di-GMP, cyclic di-GMP, reference compound]
Mus musculus STING
  recognition/binding of nucleotide by STING: detected by STING

B1: Ec-CdnD02: CD-NTase from Enterobacter cloacae, SEQ ID NO: 112 (protein, listed as Enterobacter cloacae)
chain: MELQPQFNEFLANIRPTDTQKEDWKSGARTLRERLKNFEPLKEIVVSTFLQGSIRRSTAIRPLGDKRPDVDIVVVTNLDHTRMSPTDAMDLFIPFLEKYYPGKWETQGRSFGITLSYVELDLVITAIPESGAEKSHLEQLYKSESVLTVNSLEEQTDWRLNKSWTPNTGWLSESNSAQVEDAPASEWKAHPLVLPDREKNEWGRTHPLAQIRWTAEKNRLCNGHYINLVRAVKWWRQQNSEDLPKYPKGYPLEHLIGNALDNGTTSMAQGLVQLMDTFLSRWAAIYNQKSKPWLSDHGVAEHDVMARLTAEDFCSFYEGIASAAEIARNALASEEPQESAQLWRQLFGSKFPLPGPQGGDRNGGFTTPSKPAEPQKTGRFA
[1]
  nucleotide product synthesized by the enzyme: cyclic AMP-AMP-GMP (cAAG), a cyclic trinucleotide, is the major product

B2: CdnE: E. coli cGAS/DncV-like nucleotidyltransferase, SEQ ID NO: 166 (protein, listed as Escherichia coli)
chain: MGIPESQLDTWSHQGSIAQSASTYSIIKNALESANTKYHGKNFKVFLQGSYGNDTNIYAESDVDVVICLDDVYYSDLTQLSPEDKDAYDRAFVPATYSYTQFKQDVLEALTERFGSDVKVGDKAIVVAANGSRRKADVIASMQFRRYWKFKGHYDSQYDEGICFFNGAGERIANYPKQHSENLTLKHQASNKWLKPMVRVLKNLRSKLIADGKLKSGLAPSYYLEGLLYNVPNEKFGTSYADCFVNAMNWIQTEADKDKLVCANEQYYLLWEGTHTSWEKADAEAFIDAAIKMWNEW
[1]
  requirement of a cognate stimulus for enzyme activity: constitutively active and does not require a cognate stimulus
  nucleotide product synthesized by the enzyme: cyclic UMP-AMP (cUMP-AMP)
[1]; listed as wild-type CdnE
  nucleotide product synthesized by the enzyme: robustly synthesized cUMP-AMP

B3: Em-CdnE: CdnE from Elizabethkingia meningoseptica, SEQ ID NO: 201 (protein, listed as Elizabethkingia meningoseptica)
chain: MNFSEQQLINWSRPVSTTEDLKCQNAITQITAALRAKFGNRVTIFLQGSYRNNTNVRQNSDVDIVMRYDDAFYPDLQRLSESDKAIYNAQRTYSGYNFDELKADTEEALRNVFTTSVERKNKCIQVNGNSNRITADVIPCFVLKRFSTLQSVEAEGIKFYSDDNKEIISFPEQHYSNGTEKTNQTYRLYKRMVRILKVVNYRLIDDGEIADNLVSSFFIECLVYNVPNNQFISGNYTQTLRNVIVKIYEDMKNNADYTEVNRLFWLFSNRSPRTRQDALGFMQKCWNYLGYQ
[1]
  nucleotide product synthesized by the enzyme: robustly synthesized cyclic dipurines; also recorded: synthesis of c-di-AMP, cGAMP, and c-di-GMP

B4: Rm-CdnE: CdnE homolog from Rhodothermus marinus, SEQ ID NO: 198 (protein, listed as Rhodothermus marinus)
chain: MPVPESQLERWSHQGATTTAKKTHESIRAALDRYKWPKGKPEVYLQGSYKNSTNIRGDSDVDVVVQLNSVFMNNLTAEQKRRFGFVKSDYTWNDFYSDVERALTDYYGASKVRRGRKTLKVETTYLPADVVVCIQYRKYPPNRKSEDDYIEGMTFYVPSEDRWVVNYPKLHYENGAAKNQQTNEWYKPTIRMFKNARTYLIEQGAPQDLAPSYFLECLLYNVPDSKFGGTFKDTFCSVINWLKRADLSKFRCQNGQDDLFGEFPEQWSEEKARRFLRYMDDLWTGWGQ
[1]
  nucleotide product synthesized by the enzyme: synthesized cUMP-AMP
